Legend:
[1] = system: rabbit model of thromboembolic stroke (brain infarct); experiment: Brain infarct size in rabbit model of thromboembolic stroke; type: in vivo; settings: 16-HETE 1 μg/kg per minute for 1 hour from 1 h after embolization, tPA 6.3 mg/kg between 3 and 5 hours
Experimental: New Zealand rabbits of either sex, weighing 3-4 kilograms were used for the study. Prior to the start of the experiment, the rabbits were divided into three groups, those that were administered either 16-HETE at a rate of 1 μg/kg per minute for one hour, tPA (Genentech, Inc., San Francisco, Calif.) at a concentration of 6.3 mg/kg. 16-HETE plus tPA, or vehicle.
On the day of treatment the animals were fasted for 12 hours with free access to water and then anesthetized with an intramuscular solution of ketamine (50 mg/kg), acepromazine (20 mg) and xylazine (5 mg/kg). This solution was subsequently used to maintain a surgical depth of anesthesia as determined by responses to various physiologic and autonomic stimuli, including mean arterial pressure and response to paw pinch.
The animals were prepared for surgery by introducing femoral venous and arterial catheters (PE50 and 90, respectively; Clay Adams, Parsippany, N.J.). […]
Following determination of all base line values the right common carotid bifurcation is exposed, the internal carotid artery (ICA) isolated, a micro-arteriotomy performed and the 15-mm clot embolized intracranially via the ICA. […] Post embolization rCBF is then determined and the experiment continued if rCBF is reduced to 15 cc /100 gm/minute in at least one of the PT-IR electrodes within the embolized hemisphere. […]

[2] = compared with native tPA; cited from earlier work
fibrin = settings: compared with native tPA or other variants; cited from earlier work

B1: tPA: tissue plasminogen activator (Genentech, Inc.), thrombolytic agent (protein, UniProt P00750 36-562, looked up)
Tissue-type plasminogen …: SYQVICRDEKTQMIYQQHQSWLRPVLRSNRVEYCWCNSGRAQCHSVPVKSCSEPRCFNGGTCQQALYFSDFVCQCPEGFAGKCCEIDTRATCYEDQGISYRGTWSTAESGAECTNWNSSALAQKPYSGRRPDAIRLGLGNHNYCRNPDRDSKPWCYVFKAGKYSSEFCSTPACSEGNSDCYFGNGSAYRGTHSLTESGASCLPWNSMILIGKVYTAQNPSAQALGLGKHNYCRNPDGDAKPWCHVLKNRRLTWEYCDVPSCSTCGLRQYSQPQFRIKGGLFADIASHPWQAAIFAKHRRSPGERFLCGGILISSCWILSAAHCFQERFPPHHLTVILGRTYRVVPGEEEQKFEVEKYIVHKEFDDDTYDNDIALLQLKSDSSRCAQESSVVRTVCLPPADLQLPDWTECELSGYGKHEALSPFYSERLKEAHVRLYPSSRCTSQHLLNRTVTDNMLCAGDTRSGGPQANLHDACQGDSGGPLVCLNDGRMTLVGIISWGLGCGQKDVPGVYTKVTNYLDWIRDNMRP
brain infarct size [1]: significantly larger than the 16-HETE group

B2: C84S tPA: tPA variant in which cysteine at position 84 of the growth factor domain of native tPA is replaced by serine (protein, UniProt P00750 36-562, looked up, variant C84S)
Tissue-type plasminogen …: SYQVICRDEKTQMIYQQHQSWLRPVLRSNRVEYCWCNSGRAQCHSVPVKSCSEPRCFNGGTCQQALYFSDFVCQCPEGFAGKCSEIDTRATCYEDQGISYRGTWSTAESGAECTNWNSSALAQKPYSGRRPDAIRLGLGNHNYCRNPDRDSKPWCYVFKAGKYSSEFCSTPACSEGNSDCYFGNGSAYRGTHSLTESGASCLPWNSMILIGKVYTAQNPSAQALGLGKHNYCRNPDGDAKPWCHVLKNRRLTWEYCDVPSCSTCGLRQYSQPQFRIKGGLFADIASHPWQAAIFAKHRRSPGERFLCGGILISSCWILSAAHCFQERFPPHHLTVILGRTYRVVPGEEEQKFEVEKYIVHKEFDDDTYDNDIALLQLKSDSSRCAQESSVVRTVCLPPADLQLPDWTECELSGYGKHEALSPFYSERLKEAHVRLYPSSRCTSQHLLNRTVTDNMLCAGDTRSGGPQANLHDACQGDSGGPLVCLNDGRMTLVGIISWGLGCGQKDVPGVYTKVTNYLDWIRDNMRP
in vivo / circulatory half life [2]: longer in vivo half life than native tPA
potency / effectiveness (fibrin): retains the functional activity of native tPA

B3: TNK tPA: triple mutant variant of wild type tPA: T103N, N117Q, KHRR (296-299) AAAA tPA (protein, UniProt P00750 36-562, looked up, variant T103N N117Q K296A H297A R298A R299A)
Tissue-type plasminogen …: SYQVICRDEKTQMIYQQHQSWLRPVLRSNRVEYCWCNSGRAQCHSVPVKSCSEPRCFNGGTCQQALYFSDFVCQCPEGFAGKCCEIDTRATCYEDQGISYRGNWSTAESGAECTNWQSSALAQKPYSGRRPDAIRLGLGNHNYCRNPDRDSKPWCYVFKAGKYSSEFCSTPACSEGNSDCYFGNGSAYRGTHSLTESGASCLPWNSMILIGKVYTAQNPSAQALGLGKHNYCRNPDGDAKPWCHVLKNRRLTWEYCDVPSCSTCGLRQYSQPQFRIKGGLFADIASHPWQAAIFAAAAASPGERFLCGGILISSCWILSAAHCFQERFPPHHLTVILGRTYRVVPGEEEQKFEVEKYIVHKEFDDDTYDNDIALLQLKSDSSRCAQESSVVRTVCLPPADLQLPDWTECELSGYGKHEALSPFYSERLKEAHVRLYPSSRCTSQHLLNRTVTDNMLCAGDTRSGGPQANLHDACQGDSGGPLVCLNDGRMTLVGIISWGLGCGQKDVPGVYTKVTNYLDWIRDNMRP
potency / effectiveness (fibrin): most effective of the triple mutant variants
